Reference: IntAct's records for PubMed 16648636

B1: Monothiol glutaredoxin-4 (Saccharomyces cerevisiae), P32642 (parent)
chain: MTVVEIKSQDQFTQLTTTNAANKLIVLYFKAQWADPCKTMSQVLEAVSEKVRQEDVRFLSIDADEHPEISDLFEIAAVPYFVFIQNGTIVKEISAADPKEFVKSLEILSNASASLANNAKGPKSTSDEESSGSSDDEEDETEEEINARLVKLVQAAPVMLFMKGSPSEPKCGFSRQLVGILREHQIRFGFFDILRDENVRQSLKKFSDWPTFPQLYINGEFQGGLDIIKESIEEDPEYFQHALQ
partner: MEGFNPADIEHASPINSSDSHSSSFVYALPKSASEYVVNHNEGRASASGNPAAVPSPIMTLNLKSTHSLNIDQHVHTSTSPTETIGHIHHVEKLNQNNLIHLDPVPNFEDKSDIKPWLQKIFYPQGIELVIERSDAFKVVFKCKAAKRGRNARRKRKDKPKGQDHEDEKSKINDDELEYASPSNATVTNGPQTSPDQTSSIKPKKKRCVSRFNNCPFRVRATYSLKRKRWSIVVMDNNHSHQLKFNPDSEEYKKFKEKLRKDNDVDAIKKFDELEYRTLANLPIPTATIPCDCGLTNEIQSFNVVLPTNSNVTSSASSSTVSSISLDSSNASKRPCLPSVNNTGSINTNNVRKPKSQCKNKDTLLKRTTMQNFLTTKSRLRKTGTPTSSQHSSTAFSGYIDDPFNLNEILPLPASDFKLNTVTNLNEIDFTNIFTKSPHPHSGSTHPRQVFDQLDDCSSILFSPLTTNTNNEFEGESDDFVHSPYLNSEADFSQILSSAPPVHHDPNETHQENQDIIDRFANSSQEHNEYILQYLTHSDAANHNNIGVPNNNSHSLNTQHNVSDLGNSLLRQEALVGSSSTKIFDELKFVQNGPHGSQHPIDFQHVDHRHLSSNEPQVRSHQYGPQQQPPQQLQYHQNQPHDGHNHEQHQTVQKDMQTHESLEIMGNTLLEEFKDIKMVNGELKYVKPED
B2: Monothiol glutaredoxin-3 (Saccharomyces cerevisiae), Q03835 (parent)
chain: MPVIEINDQEQFTYLTTTAAGDKLIVLYFHTSWAEPCKALKQVFEAISNEPSNSNVSFLSIDADENSEISELFEISAVPYFIIIHKGTILKELSGADPKEYVSLLEDCKNSVNSGSSQTHTMENANVNEGSHNDEDDDDEEEEEETEEQINARLTKLVNAAPVMLFMKGSPSEPKCGFSRQLVGILREHQVRFGFFDILRDESVRQNLKKFSEWPTFPQLYINGEFQGGLDIIKESLEEDPDFLQHALQS
partner: B1 partner

Variants of: B1
Conditions: with aft1_yeast AFT1, P22149

effect of a mutation on the interaction | Variant
disrupting interaction | MTVVEIKSQDQFTQLTTTNAANKLIVLYFKAQWADPCKTMSQVLEAVSEKVRQEDVRFLSIDADEHPEISDLFEIAAVPYFVFIQNGTIVKEISAADPKEFVKSLEILSNASASLANNAKGPKSTSDEESSGSSDDEEDETEEEINARLVKLVQAAPVMLFMKGSPSEPKSGFSRQLVGILREHQIRFGFFDILRDENVRQSLKKFSDWPTFPQLYINGEFQGGLDIIKESIEEDPEYFQHALQ [C171S]

Variants of: B2
Conditions: with aft1_yeast AFT1, P22149

effect of a mutation on the interaction | Variant
disrupting interaction | MPVIEINDQEQFTYLTTTAAGDKLIVLYFHTSWAEPCKALKQVFEAISNEPSNSNVSFLSIDADENSEISELFEISAVPYFIIIHKGTILKELSGADPKEYVSLLEDCKNSVNSGSSQTHTMENANVNEGSHNDEDDDDEEEEEETEEQINARLTKLVNAAPVMLFMKGSPSEPKSGFSRQLVGILREHQVRFGFFDILRDESVRQNLKKFSEWPTFPQLYINGEFQGGLDIIKESLEEDPDFLQHALQS [C176S]
